Test results taken from patent US20060263849A1, “Glucagon-like peptide-1 analogs” (priority 2000, published 2006).
Where “and” joins values, the source holds several entries; their conditions need not be identical. Equal entries are not always repeated. Values belong to the substance of their own block, whether it stands above or below them. Where no end group is shown, it is not given here.

What was measured:
[1] = GLP Aggregation Assay (time to onset of aggregation, turbidity at 350 nm); format: physicochemical; conditions: for Aggregation Time: 0.3 mg/mL in 10 mM citrate, 10 mM phosphate, 150 mM NaCl, pH 7.4 to 7.5, 37° C., stirred, turbidity at 350 nm
Description: GLP peptides of this invention were analyzed with respect to their potential to aggregate in solution. In general, peptides in solution were stirred at elevated temperature in a suitable buffer while recording turbidity at 350 nm as a function of time. Time to the onset of aggregation was measured to quantify the potential of a given GLP molecule to aggregate under these stressed conditions.
A GLP-1 compound was first dissolved under alkaline conditions (pH 10.5) for 30 minutes to dissolve any pre-aggregated material. The solution was then adjusted to pH 7.4 and filtered. Specifically, 4 mg of a lyophilized GLP-1 compound was dissolved in 3 ml of 10 mM phosphate/10 mM citrate. The pH was adjusted to 10.0-10.5 and held for 30 minutes. The solution was adjusted with HCl to pH 7.4 and filtered through a suitable filter, for example a Millex GV syringe filter (Millipore Corporation, Bedford, Mass.). This solution was then diluted to a final sample containing 0.3 mg/mL protein in 10 mM citrate, 10 mM phosphate, 150 mM NaCl, and adjusted to pH 7.4 to 7.5. […] Every five minutes the turbidity of the solution was measured at 350 nm on an AVIV Model 14DS UV-VIS spectrophotometer (Lakewood, N.J.). For 30 seconds prior to and during the measurement the solution was stirred using a magnetic stir bar from Starna Cells, Inc. (Atascadero, Calif.). An increase in OD at 350 nm indicates aggregation of the GLP-peptide. The time to aggregation was approximated by the intersection of linear fits to the pre-growth and growth phase according to method of Drake (Arvinte T, Cudd A, and Drake A F. (1993) J. Bio. Chem. 268, 6415-6422).
The cuvette was cleaned between experiments with a caustic soap solution (e.g., Contrad-70).
The results for a number of GLP-1 compounds of the present invention are reported in Table 1 as the time in hours required for the compound to aggregate.

[2] = test system: GLP-1 receptor; test: GLP-1 receptor activation, in vitro assays; format: cell-based; conditions: activity relative to the activity of GLP-1(7-37)OH
Source text: “Insulinotropic activity” refers to stimulating insulin secretion in response to elevated glucose levels, thereby causing glucose uptake by cells and decreased serum glucose levels. Insulinotropic activity can be assessed by methods known in the art, including using in vivo experiments and in vitro assays that measure GLP-1 receptor binding activity or receptor activation, e.g., assays employing pancreatic islet cells or insulinoma cells, as described in EP 619,322 to Gelfand, et al., and U.S. Pat. No. 5,120,712, respectively. The entire teachings of these references are incorporated herein by reference.
The ability of the GLP-1 compounds of the present invention to activate the GLP-1 receptor was assessed using in vitro assays such as those described in EP 619,322 to Gelfand, et al., and U.S. Pat. No. 5,120,712, respectively. The entire teachings of these references are incorporated herein by reference.

[3] = Zinc precipitation of GLP-1 compounds (A280 of supernatant); format: physicochemical; conditions: HEPES pH 7.4, 22° C., 18 hours
Description: Individual GLP-1 compounds were prepared as described in Examples 1 or 2. 3 mg of an individual lyophilized GLP molecule was dissolved in 3 ml 0.1 M HEPES buffer pH 10.5. The pH of the resulting solution was then adjusted to between 10.0 and 10.5 with 0.2 N NaOH. The solution was stirred at ambient temperature for 30 minutes and the solution was then adjusted to a pH of 7.4 with 0.2 N HCl. The solution was filtered through an appropriate syringe filter, for example a Millex GV syringe filter (Millipore Corporation, Bedford, Mass.), and the concentration of the GLP-1 compound was estimated by measuring the absorption at 280 nm in a spectrophotometer, for example a Beckman DU640. The protein concentration was then adjusted to 200 μM in HEPES pH 7.4.
The filtered GLP-1 solutions (100 μl) were diluted with 100 μl of 0.1 M HEPES pH 7.4 containing various levels of zinc chloride in an ELISA plate, (e.g. Falcon Microtest™ 96) resulting in 200 μl of solution containing various levels of zinc chloride and 100 μM GLP-1 compounds. These solutions were incubated at ambient temperature (22° C.) for 18 hours and then centrifuged, for example, in a Jouan CR412 centrifuge with microplate adapters. 150 μl of the supernatants after centrifugation were then transferred to a UV-readable ELISA microtiter plate (e.g. Costar UV plate) and the OD at 280 was determined in a microplate reader (e.g. Molecular Devices SPECTRAmax PLUS, SOFTmax PRO). A280 values are the result of two independent determinations.

[4] = Zn/GLP-1 molar ratio 0, 100 μM GLP-1 compound
[5] = Zn/GLP-1 molar ratio 0.3, 100 μM GLP-1 compound
[6] = Zn/GLP-1 molar ratio 0.5, 100 μM GLP-1 compound
[7] = Zn/GLP-1 molar ratio 0.7, 100 μM GLP-1 compound
[8] = Zn/GLP-1 molar ratio 1, 100 μM GLP-1 compound
[9] = Zn/GLP-1 molar ratio 2, 100 μM GLP-1 compound
[10] = Zn/GLP-1 molar ratio 3, 100 μM GLP-1 compound
[11] = Zn/GLP-1 molar ratio 5, 100 μM GLP-1 compound

GLP-1 Receptor Activation [2]: 0.35
Substance: Val^8-Lys^22-Glu^23-GLP-1(7-37)OH (HVEGTFTSDVSSYLEKEAAKEFIAWLVKGRH)
Aggregation Time [1]: >30 h

Substance: Val^8-GLP-1(7-37)OH [reference compound]
Aggregation Time [1]: 0.9 ± 0.2 h
A280 [3, 4]: 0.3
A280 [3, 5]: 0.27
A280 [3, 6]: 0.26
A280 [3, 7]: 0.124
A280 [3, 8]: 0.06
A280 [3, 9]: 0.025
A280 [3, 10]: 0.021
A280 [3, 11]: 0.019

GLP-1 Receptor Activation [2]: 0.37
Substance: Val^8-Lys^22-Glu^30-GLP-1(7-37)OH (HVEGTFTSDVSSYLEKQAAKEFIEWLVKGRG)
Aggregation Time [1]: 4 h

GLP-1 Receptor Activation [2]: 0.33
Substance: Val^8-His^37-GLP-1(7-37)OH (HVEGTFTSDVSSYLEGQAAKEFIAWLVKGRH)
Aggregation Time [1]: >40 h

GLP-1 Receptor Activation [2]: 0.007
Substance: Val^8-His^24-GLP-1(7-37)OH (HVEGTFTSDVSSYLEGQHAKEFIAWLVKGRG)
Aggregation Time [1]: 3 h

GLP-1 Receptor Activation [2]: 0.001
Substance: Val^8-Lys^11-GLP-1(7-37)OH (HVEGKFTSDVSSYLEGQAAKEFIAWLVKGRG)
Aggregation Time [1]: 13 h

GLP-1 Receptor Activation [2]: 0.039
Substance: Val^8-Glu^33-GLP-1(7-37)OH (HVEGTFTSDVSSYLEGQAAKEFIAWLEKGRG)
Aggregation Time [1]: >70 h

GLP-1 Receptor Activation [2]: 0.81
Substance: Val^8-Tyr^12-GLP-1(7-37)OH (HVEGTYTSDVSSYLEGQAAKEFIAWLVKGRG)
Aggregation Time [1]: 6 h

GLP-1 Receptor Activation [2]: 0.41
Substance: Val^8-His^35-GLP-1(7-37)OH (HVEGTFTSDVSSYLEGQAAKEFIAWLVKHRG)
Aggregation Time [1]: > 45 h and 30 h

GLP-1 Receptor Activation [2]: 0.28
Substance: Val^8-Glu^23-GLP-1(7-36)OH (HVEGTFTSDVSSYLEGEAAKEFIAWLVKGR)
Aggregation Time [1]: 65 h

GLP-1 Receptor Activation [2]: 0.17
Substance: Val^8-Glu^34-GLP-1(7-37)OH (HVEGTFTSDVSSYLEGQAAKEFIAWLVEGRG)
Aggregation Time in Hours ([1]; *Aggregation time determined at 30° C.): >40* Hours

GLP-1 Receptor Activation [2]: 0.34
Substance: Val^8-Gly^34-Lys^35-GLP-1(7-37)OH (HVEGTFTSDVSSYLEGQAAKEFIAWLVGKRG)
Aggregation Time [1]: 27 h

GLP-1 Receptor Activation [2]: 0.47
Substance: Val^8-Glu^22-Gln^23-GLP-1(7-37)OH (HVEGTFTSDVSSYLEEQAAKEFIAWLVKGRG)
Aggregation Time [1]: >20 h

Substance: Val^8-Ala^27-GLP-1(7-37)OH (HVEGTFTSDVSSYLEGQAAKAFIAWLVKGRG)
Aggregation Time [1]: 2 h

GLP-1 Receptor Activation [2]: 0.1
Substance: Val^8-Ala^33-GLP-1(7-37)OH (HVEGTFTSDVSSYLEGQAAKEFIAWLAKGRG)
Aggregation Time [1]: 20 h

GLP-1 Receptor Activation [2]: 0.53
Substance: Val^8-Lys^22-GLP-1(7-36)NH2 (HVEGTFTSDVSSYLEKQAAKEFIAWLVKGR-NH2)
Aggregation Time [1]: 24 h

Substance: Gly^8-GLP-1(7-37)OH (HGEGTFTSDVSSYLEGQAAKEFIAWLVKGRG-OH; UniProt P01275 98-128, looked up, variant A8G) [reference compound]
A280 [3, 4]: 0.32
A280 [3, 5]: 0.166
A280 [3, 6]: 0.151
A280 [3, 7]: 0.156
A280 [3, 8]: 0.119
A280 [3, 9]: 0.089
A280 [3, 10]: 0.085
A280 [3, 11]: 0.078

Substance: Gly^8-Glu^22-GLP-1(7-37)OH
Aggregation Time [1]: 19 h

Substance: Val^8-Glu^22-Ala^27-GLP-1(7-37)OH (HVEGTFTSDVSSYLEEQAAKAFIAWLVKGRH)
Aggregation Time [1]: >45 h

A280 [3, 4]: 0.31
A280 [3, 5]: 0.1485
A280 [3, 6]: 0.1165
A280 [3, 7]: 0.1015
A280 [3, 8]: 0.1265
A280 [3, 9]: 0.092
A280 [3, 10]: 0.061
A280 [3, 11]: 0.00795
Substance: Val^8-Phe^22-GLP-1(7-37)OH

Substance: GLP-1(7-37)OH [reference compound]
Aggregation Time [1]: 1 h
A280 [3, 4]: 0.337
A280 [3, 5]: 0.318
A280 [3, 6]: 0.329
A280 [3, 7]: 0.253
A280 [3, 8]: 0.148
A280 [3, 9]: 0.092
A280 [3, 10]: 0.081
A280 [3, 11]: 0.074
